Experimental data taken from US7662583B2, “Bioreactor containing cells expressing glycosyltransferase nucleic acids isolatable from Arabidopsis” (The University of York, priority 2003, dated 2010).

B1: UGT89B1: Arabidopsis recombinant glycosyltransferase (protein, UniProt Q9C9B0 1-473, looked up)
Flavonol …: MKVNEENNKPTKTHVLIFPFPAQGHMIPLLDFTHRLALRGGAALKITVLVTPKNLPFLSPLLSAVVNIEPLILPFPSHPSIPSGVENVQDLPPSGFPLMIHALGNLHAPLISWITSHPSPPVAIVSDFFLGWTKNLGIPRFDFSPSAAITCCILNTLWIEMPTKINEDDDNEILHFPKIPNCPKYRFDQISSLYRSYVHGDPAWEFIRDSFRDNVASWGLVVNSFTAMEGVYLEHLKREMGHDRVWAVGPIIPLSGDNRGGPTSVSVDHVMSWLDAREDNHVVYVCFGSQVVLTKEQTLALASGLEKSGVHFIWAVKEPVEKDSTRGNILDGFDDRVAGRGLVIRGWAPQVAVLRHRAVGAFLTHCGWNSVVEAVVAGVLMLTWPMRADQYTDASLVVDELKVGVRACEGPDTVPDPDELARVFADSVTGNQTERIKAVELRKAALDAIQERGSSVNDLDGFIQHVVSLGLNK
B2: UGT85A1: glycosyltransferase, FIG. 12, glucosylates cytokinins (protein, listed as Arabidopsis thaliana)
chain: MGSQIIHNSQKPHVVCVPYPAQGHINPMMRVAKLLHARGFYVTFVNTVYNHNRFLRSRGSNALDGLPSFRFESIADGLPETDMDATQDITALCESTMKNCLAPFRELLQRINAGDNVPPVSCIVSDGCMSFTLDVAEELGVPEVLFWTTSGCAFLAYLHFYLFIEKGLCPLKDESYLTKEYLEDTVIDFIPTMKNVKLKDIPSFIRTTNPDDVMISFALRETERAKRASAIILNTFDDLEHDVVHAMQSILPPVYSVGPLHLLANREIEEGSEIGMMSSNLWKEEMECLDWLDTKTQNSVIYINFGSITVLSVKQLVEFAWGLAGSGKEFLWVIRPDLVAGEEAMVPPDFLMETKDRSMLASWCPQEKVLSHPAIGGFLTHCGWNSILESLSCGVPMVCWPFFADQQMNCKFCCDEWDVGIEIGGDVKREEVEAVVRELMDGEKGKKMREKAVEWQRLAEKATEHKLGSSVMNFETVVSKFLLGQKSQD
B3: UGT73C5: Arabidopsis recombinant glycosyltransferase, FIG. 11 (protein, listed as Arabidopsis thaliana)
chain: MVSETTKSSPLHFVLFPFMAQGHMIPMVDIARLLAQRGVIITIVTTPHNAARFKNVLNRAIESGLPINLVQVKFPYLEAGLQEGQENIDSLDTMERMIPFFKAVNFLEEPVQKLIEEMNPRPSCLISDFCLPYTSKIAKKFNIPKILFHGMGCFCLLCMHVLRKNREILDNLKSDKELFTVPDFPDRVEFTRTQVPVETYVPAGDWKDIFDGMVEANETSYGVIVNSFQELEPAYAKDYKEVRSGKAWTIGPVSLCNKVGADKAERGNKSDIDQDECLKWLDSKKHGSVLYVCLGSICNLPLSQLKELGLGLEESQRPFIWVIRGWEKYKELVEWFSESGFEDRIQDRGLLIKGWSPQMLILSHPSVGGFLTHCGWNSTLEGITAGLPLLTWPLFADQFCNEKLVVEVLKAGVRSGVEQPMKWGEEEKIGVLVDKEGVKKAVEELMGESDDAKERRRRAKELGDSAHKAVEEGGSSHSNISFLLQDIMELAEPNN
B4: UGT78D2: Arabidopsis recombinant glycosyltransferase, FIG. 5 (protein, listed as Arabidopsis thaliana)
chain: MTKPSDPTRDSHVAVLAFPFGTHAAPLLTVTRRLASASPSTVFSFFNTAQSNSSLFSSGDEADRPANIRVYDIADGVPEGYVFSGRPQEAIELFLQAAPENFRREIAKAETEVGTEVKCLMTDAFFWFAADMATEINASWIAFWTAGANSLSAHLYTDLIRETIGVKEVGERMEETIGVISGMEKIRVKDTPEGVVFGNLDSVFSKMLHQMGLALPRATAVFINSFEDLDPTLTNNLRSRFKRYLNIGPLGLLSSTLQQLVQDPHGCLAWMEKRSSGSVAYISFGTVMTPPPGELAAIAEGLESSKVPFVWSLKEKSLVQLPKGFLDRTREQGIVVPWAPQVELLKHEATGVFVTHCGWNSVLESVSGGVPMICRPFFGDQRLNGRAVEVVWEIGMTIINGVFTKDGFEKCLDKVLVQDDGKKMKCNAKKLKELAYEAVSSKGRSSENFRGLLDAVVNII
B5: UGT76C1: glycosyltransferase, FIG. 9, glucosylates cytokinins (protein, listed as Arabidopsis thaliana)
chain: MEKRNERQVILFPLPLQGCINPMLQLAKILYSRGFSITIIHTRFNAPKSSDHPLFTFLQIRDGLSESQTQSRDLLLQLTLLNNNCQIPFRECLAKLIKPSSDSGTEDRKISCVIDDSGWVFTQSVAESFNLPRFVLCAYKFSFFLGHFLVPQIRREGFLPVPDSEADDLVPEFPPLRKKDLSRIMGTSAQSKPLDAYLLKILDATKPASGIIVMSCKELDHDSLAESNKVFSIPIFPIGPFHIHDVPASSSSLLEPDQSCIPWLDMRETRSVVYVSLGSIASLNESDFLEIACGLRNTNQSFLWVVRPGSVHGRDWIESLPSGFMESLDGKGKIVRWAPQLDVLAHRATGGFLTHNGWNSTLESICEGVPMICLPCKWDQFVNARFISEVWRVGIHLEGRIERREIERAVIRLMVESKGEEIRGRIKVLRDEVRRSVKQGGSSYRSLDELVDRISIIIEPLVPT
B6: UGT76C2: glycosyltransferase, FIG. 10, glucosylates cytokinins (protein, listed as Arabidopsis thaliana)
chain: MEEKRNGLRVILFPLPLQGCINPMLQLANILHVRGFSITVIHTRFNAPKASSHPLFTFLQIPDGLSETEIQDGVMSLLAQINLNAESPFRDCLRKVLLESKESERVTCLIDDCGWLFTQSVSESLKLPRLVLCTFKATFFNAYPSLPLIRTKGYLPVSESEAEDSVPEFPPLQKRDLSKVFGEFGEKLDPFLHAVVETTIRSSGLIYMSCEELEKDSLTLSNEIFKVPVFAIGPFHSYFSASSSSLFTQDETCILWLDDQEDKSVIYVSLGSVVNITETEFLEIACGLSNSKQPFLWVVRPGSVLGAKWIEPLSEGLVSSLEEKGKIVKWAPQQEVLAHRATGGFLTHNGWNSTLESICEGVPMICLPGGWDQMLNSRFVSDIWKIGIHLEGRIEKKEIEKAVRVLMEESEGNKIRERMKVLKDEVEKSVKQGGSSFQSIETLANHILLL

Columns and labels:
[1] = UGT enzyme reaction with quercetin (recombinant UGTs, HPLC); type: biochemical, Arabidopsis; conditions: 0.5 mM quercetin, 5 mM UDP-glucose, 30° C.; for Specific activity (nkat/mg protein) 3-O-glc: quercetin glucosylated at 3-OH; for Specific activity (nkat/mg protein) 3′-O-glc: quercetin glucosylated at 3′-OH; for Specific activity (nkat/mg protein) 4′-O-glc: quercetin glucosylated at 4′-OH; for Specific activity (nkat/mg protein) 7-O-glc: quercetin glucosylated at 7-OH
Summary of the method: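 Recombinant Arabidopsis UGTs (2 μg) incubated with 0.5 mM quercetin and 5 mM UDP-glucose in 100 mM Tris-HCl pH 7.0 at 30 °C for 1 h. Quercetin glucosides separated from aglycone by reverse-phase C18 HPLC (acetonitrile gradient, 0.1% TFA), detected at 370 nm.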

[2] = Whole-cell biocatalyst assay, E. coli expressing UGT in culture medium; type: cell-based; conditions: E. coli, 2x YT medium, 0.1 mM IPTG, 0.1 mM quercetin, 24 h; for Culture medium (μg/ml in supernatant) 3-O-glc: no added UDP-glucose
Experimental: FIG. 14 Whole-cell biocatalyst assay using UGT71C1. E. coli cells expressing recombinant were used in the biocatalyst assay. After incubation with 0.1 mM quercetin and 0.1 mM IPTG, cells were collected by centrifugation, extracted with 80% methanol and both the cell extracts (pellet) and culture medium (supernatant) were analysed using HPLC. (A) Changes in the combined amounts of aglycone/glucoside over a time-course of 0-48 h. (B) Changes in the level of different glucosides and aglycone in the culture medium over the same time-course.
Using the foundation established in the preceding example, we went on to investigate the potential of E. coli expressing plant UGTs as whole-cell biocatalysts to synthesise glucosides of quercetin. In the first instance, we used E. coli grown in 75 ml of standard culture medium. […] Table 2 describes results in which 7 different UGTs are expressed in E. coli and the identity and quantity of different glucosides recovered in the medium were analysed by HPLC. […] There was considerable variation in the level of different glucosides synthesised by the cells, although even under these non-optimised conditions, each of the four monoglucosides and two di-O-glucosides could be formed.

[3] = UGT enzyme reaction with cytokinins; type: biochemical; conditions: for Cytokinin products formed by the UGTs: 7-N-glucoside / Cytokinin products formed by the UGTs: 9-N-glucoside: cytokinins, 0.5 mM, 30° C., 3 h
Experimental: The assay mix (200 μl) contained 2 μg of recombinant protein, 100 mM Tris-HCl, pH 8.0, 5 mM UDP-glucose 0.5 mM ATP, 50 mM MgCl2, and 0.5 mM of cytokinin. The reaction was carried out at 30° C. for 3 h, and was quick-frozen and stored at −20° C. prior to the reverse-phase HPLC analysis
Reverse-phase HPLC (SpectraSYSTEM HPLC systems and UV6000LP Photodiode Array Detector, ThermoQuest) analysis was carried using a Columbus 5μ C18 column (250×4.60 mm, PHENOMENEX). Quercetin glucosides were separated from the aglycone by a linear gradient of 10-75% acetonitrile in H2O (all solution contained 0.1% trifluoroacetic acid) at 1 ml/mm over 20 mm and monitored at 370 nm. Cytokinin glucosides were separated from their aglycone by a liner gradient of 10-100% methanol in H2O (for N6-isopentenyladenine (iP), N6-benzyladenine and kinetin) or 10-60% methanol in H2O (for trans-zeatin and dihydrozeatin) at 1 ml/min over 20 mm. All solution contained 0.25% acetic acid and 0.04% triethylamine, trifluoroacetic acid. The separation was monitored at 206 nm and 252 nm. The identity of the products was confirmed by comparison with authentic gluco sides.
• 1. 7-N-glucoside (76C1, 76C2) • 2. 9-N-glucoside (76C1, 76C2) • 3. O-glucoside (only apply to trans-Zeatin and dihydrozeatin) (85A1 for trans-Zeatin; 85A1 and 73C5 for dihydrozeatin) Large Scale Fermentation

| Molecule | Specific activity (nkat/mg protein) 3-O-glc [1] | Specific activity (nkat/mg protein) 3′-O-glc [1] | Specific activity (nkat/mg protein) 4′-O-glc [1] | Specific activity (nkat/mg protein) 7-O-glc [1] | Culture medium (μg/ml in supernatant) 3-O-glc [2] [µg/mL] | Cytokinin products formed by the UGTs: O-glucoside ([3]; substrate dihydrozeatin) | Cytokinin products formed by the UGTs: 7-N-glucoside [3] | Cytokinin products formed by the UGTs: 9-N-glucoside [3] | other results |
| --- | --- | --- | --- | --- | --- | --- | --- | --- | --- |
| B1 | 2.05 nkat/mg protein | — (Activity lower than 0.02 nkat/mg protein has been considered as trace activity and is not shown in the Table.) | 3.38 nkat/mg protein | 3.22 nkat/mg protein | 1.08 |  |  |  | Culture medium (μg/ml in supernatant) 4′-O-glc [2]: 0.94 µg/mL; Culture medium (μg/ml in supernatant) 7-O-glc [2]: 2.36 µg/mL |
| B2 |  |  |  |  |  | O-glucoside |  |  | Cytokinin products formed by the UGTs: O-glucoside ([3]; substrate trans-Zeatin): O-glucoside |
| B3 | — (Activity lower than 0.02 nkat/mg protein has been considered as trace activity and is not shown in the Table.) | — (Activity lower than 0.02 nkat/mg protein has been considered as trace activity and is not shown in the Table.) | 0.25 nkat/mg protein | 0.11 nkat/mg protein |  | O-glucoside |  |  |  |
| B4 | 31.60 nkat/mg protein | — (Activity lower than 0.02 nkat/mg protein has been considered as trace activity and is not shown in the Table.) | — (Activity lower than 0.02 nkat/mg protein has been considered as trace activity and is not shown in the Table.) | — (Activity lower than 0.02 nkat/mg protein has been considered as trace activity and is not shown in the Table.) | 6.83 |  |  |  |  |
| B5 |  |  |  |  |  |  | 7-N-glucoside | 9-N-glucoside |  |
| B6 |  |  |  |  |  |  | 7-N-glucoside | 9-N-glucoside |  |
